Substrate: Nc1ncnc2c1ncn2[C@@H]1O[C@H](COP(=O)(O)NCCc2c[nH]c3ccccc23)[C@@H](O)[C@H]1O
Experiment: HINT1 enzyme activity assay (TrpA hydrolysis, fluorescence)
Assay type: biochemical, human
Conditions: other: substrate of hHint1
From the text: While the biologically relevant substrates of HINT1 have not been clearly elucidated, the protein has been implicated in opioid receptor signaling, − regulation of the melanoma-associated transcription factor MITF, , and DNA damage repair. These functions position HINT1 as a potential pharmacological target for treating conditions such as opioid resistance or melanoma. The only reported HINT1-targeting pharmacophores are nucleoside-based nonhydrolyzable substrate analogs, such as the carbamate TrpGC (Figure a). , We evaluated the inhibitory potential of KV-24 and KV-30 in enzyme activity assays using recombinant HINT1. […]
Mouse brain proteomics – LC-MS/MS. […] 10 µg of peptide mix was injected and analyzed using a 58 min gradient starting at 1% B up to 45% B (1 h method). […]
Mouse proteomics data analysis. The data files were analyzed with DIA-NN 1.8.1. […] The resulting protein group tables were further analyzed by Perseus 1.6.2.2. […]
CME of transferrin and confocal microscopy analyses.For transferrin uptake experiments HeLa cells were seeded on Matrigel-coated coverslips, and incubated with 0.1 % DMSO, or with 100 µM dynasore, 20 µM KV50, 2 µM KV65, or 2 µM KV79 in media containing 10% FCS at 37°C for 20 h. […] All inhibitor treatments were performed in duplicate, to enable quantification of surface levels of transferrin receptors, and to assess the capability of transferrin receptor endocytosis. […]

B1: recombinant HINT1 (hHint1) (Homo sapiens) (protein)
chain: MADEIAKAQVARPGGDTIFGKIIRKEIPAKIIFEDDRCLAFHDISPQAPTHFLVIPKKHISQISVAEDDDESLLGHLMIVGKKCAADLGLNKGYRMVVNEGSDGGQSVYHVHLHVLGGRQMHWPPG
Km: 0.139 µM

Source: publication PMC12186257, “Serendipitous and Systematic Chemoproteomic Discovery of MBLAC2, HINT1, and NME1‑4 Inhibitors from Histone Deacetylase-Targeting Pharmacophores” (ACS Chemical Biology, 2025)
